The record followed here is publication PMC10722498, “Fixing Flavins: Hijacking a Flavin Transferase for Equipping Flavoproteins with a Covalent Flavin Cofactor” (Journal of the American Chemical Society, 2023).

The target in data set [1] is T1, miniSOG (Arabidopsis thaliana, UniProt P93025, I387M/N390S/S394T/S409G/C426G/A437D/T438I/Q440S/K441G/I442A/R443T/F470L).
T1 construct: gene PHOT2; engineered LOV domain of phototropin 2, 106 residues, several mutations abolishing flavin-cysteine adduct; recombinant, coexpressed with ApbE
The data set can be described thus: X-ray crystal structure […] Å; MS. It is filed as binding. Conditions: miniSOG-F2; covalent; phosphoester to OG1 of Thr57; attached in vivo by ApbE.

Data set [2] concerns the target T2, miniSOG (Arabidopsis thaliana, UniProt P93025, I387M/N390S/S394T/S409G/C426G/F470L, form not given).
T2 construct: gene PHOT2; engineered LOV domain of phototropin 2, 106 residues, several mutations abolishing flavin-cysteine adduct; recombinant, coexpressed with ApbE
Nature of the data set: SDS-PAGE and MS. It is filed as binding. Conditions: covalent; attached in vivo by ApbE.

The next data set deals with T3, PpSB1-LOV (Pseudomonas putida, UniProt Q88E39).
T3 construct: gene PP_4629; dimer
T3 sequence (Q88E39 1-142): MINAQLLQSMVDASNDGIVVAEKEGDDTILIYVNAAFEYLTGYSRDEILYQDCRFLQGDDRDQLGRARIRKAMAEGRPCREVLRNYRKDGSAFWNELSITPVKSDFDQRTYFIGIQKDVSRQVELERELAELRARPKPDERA
The data set can be described thus: absorbance of purified holoprotein; SDS-PAGE fluorescence; ESI-MS. It is filed as binding. Conditions: dissociable, noncovalent FMN.

Substrate in the data set “steady-state kinetics”: NC(=O)N/N=C/c1ccc([N+](=O)[O-])o1
Nature of the data set: steady-state kinetics. It is filed as biochemical, Bacillus tequilensis. The text has this: steady-state kinetics on BtNR

[3] abbreviates: BtNR-F3, covalent FMN 100% (cofactor).

Turning to `Cc1cc2nc3c(=O)[nH]c(=O)nc-3n(C[C@H](O)[C@H](O)[C@H](O)COP(=O)(O)O)c2cc1C` [FMN], the “X-ray crystal structure 2.0 Å; MS” value at miniSOG [1] was “the introduced phosphoester bond between OG1 of Thr57 and the phosphate of FMN”. The “SDS-PAGE and MS” value at miniSOG [2] was “SDS-PAGE and MS analyses revealed that both proteins were fully covalently flavinylated”. The “absorbance of purified holoprotein; SDS-PAGE fluorescence; ESI-MS” value on PpSB1-LOV is “the wild-type protein did not yield in-gel fluorescence as it contains a dissociable FMN”.

B1: BtNR (Bacillus tequilensis) (protein)
chain: MADIKKQILDAYNFRHATKEFDPNKKVSDSDFEFILETGRLSPSSLGLEPWKFVVVQNPEFREKLREYTWGAQKQLPTASHFVLILARTAKDIKYNADYIKRHLKEVKQMPQDVSEGYISKTEEFQKNDLHLLESDRTLFDWASKQTYIALGNMMTAAAQIGVDSCPIEGFQYDHIHRILEEEGLLENGSFDISVMAAFGYRVRDPRPKTRSAVEDVVKWV
notes: recombinant, coexpressed with ApbE, purified
For orientation: Km means the substrate concentration at which the rate is half of its maximum. In general, kcat refers to the maximal rate divided by the concentration of active sites. The kcat/Km is the second-order rate constant that governs catalysis at low substrate concentration. As to B1, in “steady-state kinetics” (dissociable FMN), the Km is 64 ± 11.5 µM, the kcat was found to be 32 ± 2.3 s⁻¹ and the kcat/Km stood at 500000 M⁻¹ s⁻¹.

B2: BtNR (Bacillus tequilensis; A11D/A17T/F14S/H16A/N13L/R15G/Y12G) (protein)
chain: MADIKKQILDDGLSGATTKEFDPNKKVSDSDFEFILETGRLSPSSLGLEPWKFVVVQNPEFREKLREYTWGAQKQLPTASHFVLILARTAKDIKYNADYIKRHLKEVKQMPQDVSEGYISKTEEFQKNDLHLLESDRTLFDWASKQTYIALGNMMTAAAQIGVDSCPIEGFQYDHIHRILEEEGLLENGSFDISVMAAFGYRVRDPRPKTRSAVEDVVKWV
notes: as for B1
In the case of B2, in “steady-state kinetics” (setting [3]), the Km turned out to be 42 ± 6.6 µM, the kcat was determined as 4.5 ± 0.2 s⁻¹ and the kcat/Km worked out at 110000 M⁻¹ s⁻¹.
